Experimental findings from PMC8537613 are described below.

Common to all, as to test: ELISA
For experiment [1], the target named is RSV FxG (respiratory syncytial virus A2 | respiratory syncytial virus (strain not stated for G)) (UniProt P03423).
The target of experiment [2] is RSV F clamp (respiratory syncytial virus A2) (UniProt P03420).
The target of the next experiment is RSV sG.
Experiment [3] concerns the target NiV FxG (Nipah virus (Malaysia strain) | Nipah virus) (UniProt Q9IH63).

Usually Kd stands for the equilibrium constant for the complex coming apart. Higher therefore signals a looser complex.

Chain of RSV F clamp (respiratory syncytial virus A2) (P03420 whole entry, looked up): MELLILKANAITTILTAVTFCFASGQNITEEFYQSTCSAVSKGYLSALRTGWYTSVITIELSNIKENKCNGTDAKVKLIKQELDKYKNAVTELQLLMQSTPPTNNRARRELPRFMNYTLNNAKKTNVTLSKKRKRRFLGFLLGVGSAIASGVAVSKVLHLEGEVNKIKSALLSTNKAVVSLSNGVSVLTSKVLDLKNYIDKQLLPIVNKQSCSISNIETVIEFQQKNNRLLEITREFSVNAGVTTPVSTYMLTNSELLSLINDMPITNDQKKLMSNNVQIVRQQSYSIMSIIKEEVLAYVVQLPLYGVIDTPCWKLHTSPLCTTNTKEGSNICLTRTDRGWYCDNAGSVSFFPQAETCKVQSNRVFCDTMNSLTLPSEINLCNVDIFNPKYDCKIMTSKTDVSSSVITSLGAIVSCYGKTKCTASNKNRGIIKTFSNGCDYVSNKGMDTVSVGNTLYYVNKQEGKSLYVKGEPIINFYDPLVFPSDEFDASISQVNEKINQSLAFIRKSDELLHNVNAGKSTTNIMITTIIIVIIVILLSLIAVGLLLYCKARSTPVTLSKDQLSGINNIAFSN
Chain of RSV FxG (respiratory syncytial virus A2 | respiratory syncytial virus (strain not stated for G)) (P03423 whole entry): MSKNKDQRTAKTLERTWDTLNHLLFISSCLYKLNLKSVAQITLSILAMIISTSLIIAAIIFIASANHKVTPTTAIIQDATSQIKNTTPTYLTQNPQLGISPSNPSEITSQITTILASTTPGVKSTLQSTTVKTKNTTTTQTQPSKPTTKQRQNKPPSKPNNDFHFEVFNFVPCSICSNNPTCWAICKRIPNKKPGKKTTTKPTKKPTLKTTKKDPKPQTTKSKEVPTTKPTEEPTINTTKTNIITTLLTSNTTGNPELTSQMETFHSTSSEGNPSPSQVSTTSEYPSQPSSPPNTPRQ
Chain of NiV FxG (Nipah virus (Malaysia strain) | Nipah virus) (Q9IH63 whole entry, looked up): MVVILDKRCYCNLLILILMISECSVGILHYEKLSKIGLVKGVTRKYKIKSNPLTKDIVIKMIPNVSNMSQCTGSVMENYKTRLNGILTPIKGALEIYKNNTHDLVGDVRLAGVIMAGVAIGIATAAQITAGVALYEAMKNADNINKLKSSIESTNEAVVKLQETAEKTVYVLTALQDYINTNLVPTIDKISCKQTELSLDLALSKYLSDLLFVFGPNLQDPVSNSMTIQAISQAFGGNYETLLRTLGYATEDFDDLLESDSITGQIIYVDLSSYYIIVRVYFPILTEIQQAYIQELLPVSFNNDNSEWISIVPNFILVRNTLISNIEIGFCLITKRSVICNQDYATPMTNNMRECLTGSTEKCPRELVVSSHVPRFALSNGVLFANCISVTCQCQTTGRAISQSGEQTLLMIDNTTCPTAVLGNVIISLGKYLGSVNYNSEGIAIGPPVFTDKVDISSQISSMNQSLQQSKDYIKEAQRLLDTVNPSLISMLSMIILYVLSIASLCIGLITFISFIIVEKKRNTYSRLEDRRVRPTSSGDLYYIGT

Turning to MPE8, the Kd in experiment [1] was found to be 0.42 nM; in experiment [2], 0.64 nM.
On to 3D3, for which the results for the Kd (with RSV sG; in experiment [1]) were 2.11 nM and 0.43 nM, respectively.
Consider 2D10, for which the Kd was found to be 1.29 nM with RSV sG and 0.41 nM in experiment [1].
In the case of Mota, the results for the Kd in experiment [1] and in experiment [2] were 0.26 nM and 0.21 nM, respectively.
In the case of D25, the Kd in experiment [1] is 0.48 nM; in experiment [2], 0.97 nM.
In experiment [3], m102.4 returned a Kd of 0.17 nM.
